Experimental data as given in patent publication US20230287109A1 (INGENIA THERAPEUTICS, published 2023).
Values belong to the binder of their own block, whether it stands above or below them.

Molecular target: T1, rabbit Tie2 (form not stated) (rabbit)
T1 construct: also called rabbit ortholog of Tie-2
Experiment: SPR, summary table, column Rabbit Tie2, Kd [M]

Kd: < 0.127 nM
B1: PRO593, PEGylated with two 20 kDa linear PEG (Fc fusion)
heavy: EVQLVQSGAEVKKPGASVKVSCKASGYSFTSYWMNWVRQAPGQGLEWMGMIHPSDSETRLNQKFMDRVTMTRDTSTSTVYMELSSLRSEDTAVYYCARGLYGNSWGQGTLVTVSSASTKGPSVFPLAPSSKSTSGGTAALGCLVKDYFPEPVTVSWNSGALTSGVHTFPAVLQSSGLYSLSSVVTVPSSSLGTQTYICNVNHKPSNTKVDKKVEPKSSDKTHTSPPSPAPEAAGGPSVFLFPPKPKDTLMISRTPEVTCVVVDVSHEDPEVKFNWYVDGVEVHNAKTKPREEQYNSTYRVVSVLTVLAQDWLNGKEYKCKVSNKALPAPIEKTISKAKGQPREPQVYTLPPSRDELTKNQVSLTCLVKGFYPSDIAVEWESNGQPENNYKTTPPVLDSDGSFFLYSKLTVDKSRWQQGNVFSCSVMHEALHNHYTQKSLSLSPGKGGGGSGGGGSGGGGSGGGGSSDTGRPFVEMYSEIPEIIHMTEGRELVIPCRVTSPNITVTLKKFPLDTLIPDGKRIIWDSRKGFIISNATYKEIGLLTCEATVNGHLYKTNYLTHRQTNTIIDVVLSPSHGIELSVGEKLVLNCTARTELNVGIDFNWEYPSSKHQHKKLVNRDLKTQSGSEMKKFLSTLTIDGVTRSDQGLYTCAASSGLMTKKNSTFVRVHEKGGSSKCA
light: DIQMTQSPSSLSASVGDRVTITCRASQDIGISLNWYQQEPGKAIKRLIYATSSLDSGVPKRFSGSRSGTEYTLTISSLESEDFADYYCLQYASSPYTFGGGTKLEIKRTVAAPSVFIFPPSDEQLKSGTASVVCLLNNFYPREAKVQWKVDNALQSGNSQESVTEQDSKDSTYSLSSTLTLSKADYEKHKVYACEVTHQGLSSPVTKSFNRGES
modifications: chain 1 pos 676: Cys carrying 20 kDa linear PEG-maleimide, written C (two PEG per antibody, one on each heavy chain).
notes: All interchain disulfide bonds removed

Kd: < 0.13 nM
B2: PRO593, PEGylated with two 40 kDa branched PEG (Fc fusion)
heavy: B1 heavy
light: B1 light
modifications: chain 1 pos 676: Cys carrying 40 kDa branched PEG-maleimide, written C (one PEG per heavy chain, two per antibody)
